This is an account of results in the RNAGym collection of RNA variant scans (doi:10.7554/elife.80360).

B1: Hairpin Ribozyme (parent)
chain: GUCCUCUUUCACGUGCGCGUGAAAGAGAGAAGUGAACCAGAGAAACACACGUUGUGGUAUAUUACCUGGUA

This data set covers variants of B1. Description: self-cleavage, relative activity (ratio to wild type); higher = more cleavage; co-transcriptional.
Regarding U7A G29U, the self-cleavage was found to be 0.178.
As for U7A G29A, the figure is 0.099; as for U7A A45G, 0.204.
Consider U7A A45U, for which the self-cleavage was determined as 0.261.
The same measure for C6U A26C: 0.29; for C6U A26G: 0.31.
Turning to U7G A36C, the self-cleavage is 0.669.
For the variant U7C G56U, the self-cleavage was 0.188.
C6U A22G: the self-cleavage was 0.796.
Turning to U7A A61C, the self-cleavage came to 0.188.
The same measure for U7C U62A: 0.288; for U8C A22U: 0.344.
The same measure for U8A U55G: 0.268.
U8A U55A: the self-cleavage worked out at 0.184.
For U8A U55C, the self-cleavage was determined as 0.322.
Regarding U8A C10G, the self-cleavage is 0.44.
As for U8A C10U, the figure is 0.643; as for U7A G32C, 0.143; as for C6U U9C, 0.369.
Turning to C6U U9G, the self-cleavage amounted to 0.438.
As for U7C A24G, the figure is 0.628.
Regarding U8A C12G, the self-cleavage stood at 0.552.
On to C6U G69A, for which the self-cleavage stood at 0.379.
For the variant U7A G25C, the self-cleavage turned out to be 0.402.
As for C6U U67A, the figure is 0.151.
The same measure for C6U U67C: 0.222; for U7C A64U: 0.0591; for U7C G27U: 0.222.
As for U7C A43G, the figure is 0.0623.
On to C6U A39U, for which the self-cleavage is 0.381.
The same measure for U7C A59U: 0.178; for U7C C37U: 0.494.
For U7G C18G, the self-cleavage is 0.739.
The same measure for U7G C18U: 1.07; for U7A A30C: 0.121; for U7A A30U: 0.0668.
U7A G19U: the self-cleavage turned out to be 0.581.
The same measure for U7A G19C: 0.711; for U7G U63C: 0.143; for U7A G13A: 0.962.
Consider U8A U70G, for which the self-cleavage came to 0.585.
Turning to U8A U70C, the self-cleavage came out at 0.816.
As for U8A G21A, the figure is 0.618; as for U7G U70C, 0.838; as for U7G U70G, 0.917.
The same measure for U8A U67C: 0.186; for U8A U67A: 0.196.
On to U7A A39G, for which the self-cleavage turned out to be 0.318.
Take C6U A23G: the self-cleavage was 0.768.
The same measure for U8A G29A: 0.183.
On to U8A A64U, for which the self-cleavage turned out to be 0.151.
As for U8A A64C, the figure is 0.181.
For U7A U9C, the self-cleavage was found to be 0.714.
Take U7A U9A: the self-cleavage came out at 0.666.
As for U7A U9G, the self-cleavage worked out at 0.579.
As to U7C G21C, the self-cleavage turned out to be 0.962.
On to C6U A45U, for which the self-cleavage worked out at 0.194.
The same measure for C6U A45G: 0.135; for U7C A26C: 0.275; for U7C A26G: 0.667.
Take U7G U62C: the self-cleavage is 0.0811.
As for U7G U62A, the figure is 0.101; as for U7C G13C, 0.518; as for C6U A64C, 0.238.
On to C6U A64U, for which the self-cleavage worked out at 0.16.
As for C6U A64G, the figure is 0.514; as for U7G G29U, 0.136.
For the variant U7G A35C, the self-cleavage was determined as 0.757.
As for U7G A41C, the figure is 0.863; as for U7G A41G, 0.946.
As to U7G A41U, the self-cleavage amounted to 1.12.
As for U7A U62G, the figure is 0.0626; as for U8A A30G, 0.13; as for U7A A64C, 0.194.
The same measure for U8A A49C: 0.165; for U8A A49U: 0.148; for U8A A49G: 0.366.
For the variant U7C C66U, the self-cleavage stood at 0.542.
For C6U U60A, the self-cleavage turned out to be 0.732.
As for C6U U60G, the figure is 0.502; as for C6U G29C, 0.13; as for U7A U60A, 0.893.
The same measure for U7C U53A: 1.3.
Take U7C U53G: the self-cleavage came to 0.686.
For U8A U20G, the self-cleavage worked out at 0.711.
The same measure for U7G A47G: 0.174.
The same measure for C6U U63A: 0.207.
Turning to U7C A23C, the self-cleavage was found to be 0.455.
In the case of C6U C10G, the self-cleavage is 0.416.
For the variant U7G G40C, the self-cleavage came out at 0.207.
In the case of U7G G40A, the self-cleavage came to 0.308.
The same measure for U8A A31G: 0.448.
As for U8A A31U, the figure is 0.135.
As for U7C A49U, the figure is 0.135; as for U8C A24U, 0.369.
C6U A24U: the self-cleavage worked out at 0.781.
As for C6U G17U, the self-cleavage was determined as 0.859.
As for U7G G13A, the figure is 0.704; as for U7A A71U, 0.814.
As to U7A A71G, the self-cleavage came to 0.895.
C6U A41G: the self-cleavage was found to be 0.768.
For U7G U67A, the self-cleavage was 0.238.
The same measure for U7G U67C: 0.217; for U7A C12G: 0.662; for U7C A11C: 0.525.
Consider C6U U62C, for which the self-cleavage amounted to 0.188.
As for C6U G25A, the self-cleavage was determined as 0.751.
As for C6U G25U, the figure is 0.762; as for U7C G69U, 0.179.
As for U7C C38A, the self-cleavage came to 0.185.
The same measure for U7C C38U: 0.211; for C6U G21C: 0.597.
As for U8A U53A, the figure is 0.763; as for U8A U53G, 0.59.
The same measure for C6U U14C: 0.932; for C6U U14G: 0.791.
Regarding C6U U14A, the self-cleavage was 0.853.
On to U8A A61U, for which the self-cleavage amounted to 0.191.
Turning to U7A A43G, the self-cleavage came out at 0.222.
For the variant U7G A44G, the self-cleavage was 0.16.
The same measure for C6U A36U: 0.54; for C6U A36C: 0.705; for C6U C46U: 0.176.
The same measure for U7C G32A: 0.0904; for U7A A59G: 0.194.
As for U7A A59C, the figure is 0.136; as for C6U G27U, 0.147.
For the variant C6U G27C, the self-cleavage is 0.106.
As for C6U G27A, the figure is 0.309.
Regarding C6U U7A, the self-cleavage is 0.515.
With U7C C50A, the self-cleavage came out at 0.209.
As to U7C C50G, the self-cleavage is 0.229.
The same measure for U7A U52A: 0.992; for C6U U52G: 0.797.
Consider U7G G27C, for which the self-cleavage was 0.152.
As for U7G G27U, the figure is 0.226; as for U7G C65G, 0.31.
The same measure for U7G C65A: 0.975.
As for U8A C50G, the self-cleavage is 0.21.
The same measure for U8A A26U: 0.421; for U8A A26C: 0.334.
In the case of U7A G51A, the self-cleavage was 0.977.
As for U7C A39U, the figure is 0.465; as for U7C A39C, 0.583.
With U7C A39G, the self-cleavage is 0.263.
The same measure for U8A A71C: 1.23; for U8A U33C: 0.137; for U8A U14A: 0.642.
The same measure for U8A U14G: 0.401; for U7G C16G: 0.689; for U7G C16U: 0.932.
The same measure for U8A G54U: 0.524; for U7C A22U: 0.642.
As to C6U G57A, the self-cleavage came out at 0.117.
C6U G57U: the self-cleavage was 0.324.
The same measure for U7C G29U: 0.178.
In the case of U7C G29A, the self-cleavage is 0.204.
Turning to U7G U20C, the self-cleavage was found to be 0.798.
As for U7G A71C, the figure is 1.35.
Turning to U7G A71G, the self-cleavage worked out at 1.06.
The same measure for U7A C38U: 0.329.
Consider U7C A35C, for which the self-cleavage amounted to 0.612.
The same measure for U7G C12U: 0.753; for U7G C12A: 0.732.
On to U7G A30U, for which the self-cleavage stood at 0.0317.
In the case of U8C A23G, the self-cleavage was 0.709.
As for U7A A24G, the figure is 0.702.
